Patent US20240415886A1 (published 2024)

Biological target: T1, p53 wild type peptide on HLA-A*02:01 (human)
T1 peptide: HMTEVVRRC
Test: activation reporter or marker

B1: p53R175H peptide specific TCR (the inventive TCR) (TCR, V domains shown)
Valpha: GIQVEQSPPDLILQEGANSTLRCNFSDSVNNLQWFHQNPWGQLINLFYIPSGTKQNGRLSATTVATERYSLLYISSSQTTDSGVYFCAVNQAGTALIFGKGTTLSVSS
Vbeta: EPEVTQTPSHQVTQMGQEVILRCVPISNHLYFYWYRQILGQKVEFLVSFYNNEISEKSEIFDDQFSVERPDGSNFTLKIRSTKLEDSAMYFCASMGTGDEAFFGQGTRLTVV
binding result: no recognition
